This is an account of results in PMC2685089.

Assay in all cases: EMSA
Series [1] concerns the target T1, Up1 (UniProt P09651-2 2-196).
Series [2] addresses T1, Up1. This is another data set of the same source.
A further series addresses hnRNP A1 (A1) (UniProt P09651-2 2-320).

B1: CKIT (structured_DNA)
DNA: AGGGAGGGCGCTGGGAGGAGGG
Turning to B1, the binding result in the series with Up1 [1] is “binds”.

B2: 32R (structured_DNA)
DNA: AGGGCGGTGTGGGAAGAGGGAAGAGGGGGAGG
The molecule B2 yielded a Kd in the series with Up1 [2] of approximately 50 nM.

B3: dsNHE (32R:32Y) (dsDNA)
DNA 1: AGGGCGGTGTGGGAAGAGGGAAGAGGGGGAGG
DNA 2: CCTCCCCCTCTTCCCTCTTCCCACACCGCCCT
As to B3, the binding result with hnRNP A1 (A1) and with Up1 [1] was “no binding” throughout.
